Measurements published in article PMC7983947, “ADP-Ribosylation Regulates the Signaling Function of IFN-γ” (Frontiers in Immunology, 2021).

Columns and labels:
[1] = target: T1, recombinant IFNR1-Fc (extracellular domain of interferon receptor 1) (UniProt P15261)
T1 sequence: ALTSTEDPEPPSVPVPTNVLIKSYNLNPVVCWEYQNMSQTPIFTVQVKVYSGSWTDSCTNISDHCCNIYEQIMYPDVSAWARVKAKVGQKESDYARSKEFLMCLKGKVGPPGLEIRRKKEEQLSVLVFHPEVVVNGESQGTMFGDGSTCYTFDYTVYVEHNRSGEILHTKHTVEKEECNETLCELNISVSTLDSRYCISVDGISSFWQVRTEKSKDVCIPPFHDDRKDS

[2] = target: the molecule itself; test: non-reducing SDS-PAGE; murine serum spiked with IFN-γ, incubated with shed ARTC2.2 and 32P-NAD+; gel run under non-reducing conditions, autoradiography

B1: ADP-ribosylated IFN-γ (ligand)
chain: HGTVIESLESLNNYFNSSGIDVEEKSLFLDIWRNWQKDGDMKILQSQIISFYLRLFEVLKDNQAISNNISVIESHLITTFFSNSKAKKDAFMSIAKFEVNNPQVQRQAFNELIRVVHQLLPESSLRKRKRSRC
modifications: ADP-ribosyl-arginine at R128
B1 showed a phosphorylation of STAT1 in primary peritoneal macrophages (flow cytometry, serial titrations); loss of potency against unmodified IFN-γ; restored by de-ADP-ribosylation with ARH1 [1] of 4 fold.

B2: recombinant murine IFN-γ (ligand, UniProt P01580 23-155, looked up)
chain: B1 chain
notes: interferon gamma, murine, recombinant; also called interferon-gamma; native IFN-γ homodimer; source: bought: Immunotools
B2: binds [2].
